Assay results reported in the supplement of paper PMC10567573.

B1: FEM1B (parent)
chain: TLAALLLNRSESDIRYLLGYVSQQ

Variants of: B1
Test: protein stability index of a GFP-peptide fusion (GPS, HEK-293T) (PSI 1-6); higher = more stable
Details: c terminus: a fixed tail appended
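Also: lentivirally expressed fusions sorted by FACS into six bins by GFP to DsRed ratio, PSI derived from sequencing read proportions per bin multiplied by bin number.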

Variant | protein stability index
TLAAILLNRSESDIRYLLGYVSQQ [L5I] | 3.24
TLAAPLLNRSESDIRYLLGYVSQQ [L5P] | 1.79
TLAAKLLNRSESDIRYLLGYVSQQ [L5K] | 1.44
TLAAFLLNRSESDIRYLLGYVSQQ [L5F] | 5.25
TLAADLLNRSESDIRYLLGYVSQQ [L5D] | 2.45
TLAASLLNRSESDIRYLLGYVSQQ [L5S] | 2.6
TLAAELLNRSESDIRYLLGYVSQQ [L5E] | 2.14
TLAAWLLNRSESDIRYLLGYVSQQ [L5W] | 2.25
TLAAALLNRSESDIRYLLGYVSQQ [L5A] | 2.03
TLAACLLNRSESDIRYLLGYVSQQ [L5C] | 2.4
TLAAYLLNRSESDIRYLLGYVSQQ [L5Y] | 3.74
TLAAHLLNRSESDIRYLLGYVSQQ [L5H] | 2.62
TLAALLLNRSESQIRYLLGYVSQQ [D13Q] | 2.04
TLAALLLNRSESSIRYLLGYVSQQ [D13S] | 2.62
TLAALLLNRSESPIRYLLGYVSQQ [D13P] | 2.13
TLAALLLNRSESHIRYLLGYVSQQ [D13H] | 3.21
TLAALLLNRSESWIRYLLGYVSQQ [D13W] | 4.04
TLAALLLNRSESIIRYLLGYVSQQ [D13I] | 3.07
TLAALLLNRSESCIRYLLGYVSQQ [D13C] | 3.94
TLAALLLNRSESGIRYLLGYVSQQ [D13G] | 2.81
TLAALLLNRSESEIRYLLGYVSQQ [D13E] | 3.26
TLAALLLNRSESLIRYLLGYVSQQ [D13L] | 3.62
TLAALLLNRSESTIRYLLGYVSQQ [D13T] | 2.88
TLAALLLNRSESKIRYLLGYVSQQ [D13K] | 2.79

Variant | protein stability index
TLAALLLNRSESNIRYLLGYVSQQ [D13N] | 2.77
TLAALLLNRSESRIRYLLGYVSQQ [D13R] | 2.72
TLAALLLNRSESMIRYLLGYVSQQ [D13M] | 3.99
TLAALLLNRSESFIRYLLGYVSQQ [D13F] | 1.76
TLAALLLNRSESAIRYLLGYVSQQ [D13A] | 2.76
TLAALLLNRSESYIRYLLGYVSQQ [D13Y] | 3.38
TLAALLLNRSESVIRYLLGYVSQQ [D13V] | 3.19
TLAALLLGRSESDIRYLLGYVSQQ [N8G] | 2.04
TLAALLLHRSESDIRYLLGYVSQQ [N8H] | 2.92
TLAALLLMRSESDIRYLLGYVSQQ [N8M] | 4.03
TLAALLLSRSESDIRYLLGYVSQQ [N8S] | 2.67
TLAALLLFRSESDIRYLLGYVSQQ [N8F] | 2.45
TLAALLLIRSESDIRYLLGYVSQQ [N8I] | 1.53
TLAALLLRRSESDIRYLLGYVSQQ [N8R] | 3
TLAALLLWRSESDIRYLLGYVSQQ [N8W] | 4.75
TLAALLLTRSESDIRYLLGYVSQQ [N8T] | 2.38
TLAALLLCRSESDIRYLLGYVSQQ [N8C] | 4.47
TLAALLLARSESDIRYLLGYVSQQ [N8A] | 2.48
TLAALLLDRSESDIRYLLGYVSQQ [N8D] | 3.63
TLAALLLQRSESDIRYLLGYVSQQ [N8Q] | 3.3
TLAALLLKRSESDIRYLLGYVSQQ [N8K] | 4.32
TLASLLLNRSESDIRYLLGYVSQQ [A4S] | 3.29
TLATLLLNRSESDIRYLLGYVSQQ [A4T] | 2.35
TLAYLLLNRSESDIRYLLGYVSQQ [A4Y] | 3.38

Variant | protein stability index
TLAWLLLNRSESDIRYLLGYVSQQ [A4W] | 2.28
TLAVLLLNRSESDIRYLLGYVSQQ [A4V] | 2.42
TLAALLLNRHESDIRYLLGYVSQQ [S10H] | 4.65
TLAALLLNRQESDIRYLLGYVSQQ [S10Q] | 4.48
TLAALLLNRNESDIRYLLGYVSQQ [S10N] | 2.29
TLAALLLNRAESDIRYLLGYVSQQ [S10A] | 3.37
TLAALLLNRKESDIRYLLGYVSQQ [S10K] | 2.28
TLAALLLNRGESDIRYLLGYVSQQ [S10G] | 1.53
TLAALLLNRWESDIRYLLGYVSQQ [S10W] | 3.07
TLAALLLNRLESDIRYLLGYVSQQ [S10L] | 3.05
TLAALLLNRFESDIRYLLGYVSQQ [S10F] | 3.1
TLAALLLNREESDIRYLLGYVSQQ [S10E] | 3.2
TLAALLLNRVESDIRYLLGYVSQQ [S10V] | 1.87
TLAALLLNRIESDIRYLLGYVSQQ [S10I] | 3.57
TLAALLLNRMESDIRYLLGYVSQQ [S10M] | 1.87
TLAALLLNRPESDIRYLLGYVSQQ [S10P] | 3.81
TLAALLLNRCESDIRYLLGYVSQQ [S10C] | 2.4
TLAALLLNRYESDIRYLLGYVSQQ [S10Y] | 2.41
TLAALLLNRSESDIFYLLGYVSQQ [R15F] | 3.37
TLAALLLNRSESDIDYLLGYVSQQ [R15D] | 2.12
TLAALLLNRSESDILYLLGYVSQQ [R15L] | 3.36
TLAALLLNRSESDIHYLLGYVSQQ [R15H] | 2.4
TLAALLLNRSESDIEYLLGYVSQQ [R15E] | 2.72
TLAALLLNRSESDIAYLLGYVSQQ [R15A] | 2.31

Variant | protein stability index
TLAALLLNRSESDICYLLGYVSQQ [R15C] | 2.14
TLAALLLNRSESDIKYLLGYVSQQ [R15K] | 2.3
TLAALLLNRSESDIIYLLGYVSQQ [R15I] | 2.81
TLAALLLNRSESDNRYLLGYVSQQ [I14N] | 1.74
TLAALLLNRSESDARYLLGYVSQQ [I14A] | 2.58
TLAALLLNRSESDFRYLLGYVSQQ [I14F] | 2.7
TLAALLLNRSESDPRYLLGYVSQQ [I14P] | 1.79
TLAALLLNRSESDGRYLLGYVSQQ [I14G] | 3.06
TLAALLLNRSESDMRYLLGYVSQQ [I14M] | 3.25
TLAALLLNRSESDERYLLGYVSQQ [I14E] | 2.85
TLAALLLNRSESDLRYLLGYVSQQ [I14L] | 2.7
TLAALLLNRSESDWRYLLGYVSQQ [I14W] | 1.77
TLAALLLNRSESDDRYLLGYVSQQ [I14D] | 1.53
TLAALLLNRSESDRRYLLGYVSQQ [I14R] | 3
TLAALLLNRSESDYRYLLGYVSQQ [I14Y] | 3.54
TLAALLLNRSESDSRYLLGYVSQQ [I14S] | 3
TLAALLLNRSESDQRYLLGYVSQQ [I14Q] | 2.35
TLAALLLNRSESDTRYLLGYVSQQ [I14T] | 2.56
TLAALLLNRSESDKRYLLGYVSQQ [I14K] | 1.96
TLAALLLNRSESDHRYLLGYVSQQ [I14H] | 3.1
TLAALLLNRSESDCRYLLGYVSQQ [I14C] | 2.37
TLAALLLNRSESDVRYLLGYVSQQ [I14V] | 2.9
